From patent US20170152307A1

Experiments:
[1] = target: ptau 194-212 (pS202, pT205) (human); assay: peptide ELISA, 1 ug/mL IgG
[2] = target: ptau 194-212 (pS202, pT205) (human); assay: peptide ELISA, biotinylated peptide on streptavidin plate, IgG titrated (Example 6)
tau 194-212 (human) = assay: peptide ELISA
[3] = target: ptau 187-212 (A211) (human); assay: alanine-scan peptide ELISA, 1 ug/mL IgG
[4] = target: ptau 187-212 (pS202, pT205; as printed in Table 22) (human); assay: alanine-scan peptide ELISA, 1 ug/mL IgG
[5] = target: ptau 187-212 (A202) (human); assay: alanine-scan peptide ELISA, 1 ug/mL IgG
[6] = target: ptau 187-212 (A210) (human); assay: alanine-scan peptide ELISA, 1 ug/mL IgG
[7] = target: ptau 187-212 (A212) (human); assay: alanine-scan peptide ELISA, 1 ug/mL IgG
[8] = target: ptau 187-212 (A192) (human); assay: alanine-scan peptide ELISA, 1 ug/mL IgG
[9] = target: ptau 187-212 (A190) (human); assay: alanine-scan peptide ELISA, 1 ug/mL IgG
[10] = target: ptau 187-212 (A196) (human); assay: alanine-scan peptide ELISA, 1 ug/mL IgG
[11] = target: ptau 187-212 (A204) (human); assay: alanine-scan peptide ELISA, 1 ug/mL IgG
[12] = target: ptau 187-212 (A201) (human); assay: alanine-scan peptide ELISA, 1 ug/mL IgG
[13] = target: ptau 187-212 (A187) (human); assay: alanine-scan peptide ELISA, 1 ug/mL IgG
[14] = target: ptau 187-212 (A194) (human); assay: alanine-scan peptide ELISA, 1 ug/mL IgG
[15] = target: ptau 187-212 (A191) (human); assay: alanine-scan peptide ELISA, 1 ug/mL IgG
[16] = target: ptau 187-212 (A188) (human); assay: alanine-scan peptide ELISA, 1 ug/mL IgG
[17] = target: ptau 187-212 (A193) (human); assay: alanine-scan peptide ELISA, 1 ug/mL IgG
[18] = target: ptau 187-212 (A208) (human); assay: alanine-scan peptide ELISA, 1 ug/mL IgG
[19] = target: ptau 187-212 (A207) (human); assay: alanine-scan peptide ELISA, 1 ug/mL IgG
[20] = target: ptau 187-212 (A200) (human); assay: alanine-scan peptide ELISA, 1 ug/mL IgG
[21] = target: ptau 187-212 (A195) (human); assay: alanine-scan peptide ELISA, 1 ug/mL IgG
[22] = target: ptau 187-212 (A209) (human); assay: alanine-scan peptide ELISA, 1 ug/mL IgG
[23] = target: ptau 187-212 (A205) (human); assay: alanine-scan peptide ELISA, 1 ug/mL IgG
[24] = target: ptau 187-212 (A206) (human); assay: alanine-scan peptide ELISA, 1 ug/mL IgG
[25] = target: ptau 187-212 (A199) (human); assay: alanine-scan peptide ELISA, 1 ug/mL IgG
[26] = target: ptau 187-212 (A203) (human); assay: alanine-scan peptide ELISA, 1 ug/mL IgG
[27] = target: ptau 187-212 (A198) (human); assay: alanine-scan peptide ELISA, 1 ug/mL IgG
[28] = target: ptau 187-212 (A197) (human); assay: alanine-scan peptide ELISA, 1 ug/mL IgG
[29] = target: ptau 187-212 (A189) (human); assay: alanine-scan peptide ELISA, 1 ug/mL IgG
[30] = target: ptau 194-212 (pS202, pT205) (human); assay: peptide ELISA, 2 ug/mL IgG
ptau 188-209 (human) = assay: peptide ELISA, 2 ug/mL IgG
ptau 188-212 (human) = assay: peptide ELISA, 2 ug/mL IgG
ptau 192-212 (human) = assay: peptide ELISA, 2 ug/mL IgG
ptau 189-212 (human) = assay: peptide ELISA, 2 ug/mL IgG
[31] = target: ptau 187-212 (pY197, pT205; as printed in Table 11) (human); assay: peptide ELISA, 2 ug/mL IgG
ptau 188-206 (human) = assay: peptide ELISA
ptau 192-209 (human) = assay: peptide ELISA
ptau 189-206 (human) = assay: peptide ELISA
ptau 188-205 (human) = assay: peptide ELISA
ptau 192-215 (human) = assay: peptide ELISA
ptau 189-209 (human) = assay: peptide ELISA
ptau 192-217 (human) = assay: peptide ELISA
tau 190-209 (human) = assay: peptide ELISA
tau 186-253 (human) = assay: peptide ELISA
Chain of tau 186-253 (human) (peptide, as listed by the source limits assumed): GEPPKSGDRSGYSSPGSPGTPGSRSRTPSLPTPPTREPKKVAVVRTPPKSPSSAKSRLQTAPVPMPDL

Chain of CBTAU-7.1 (antibody) (VH): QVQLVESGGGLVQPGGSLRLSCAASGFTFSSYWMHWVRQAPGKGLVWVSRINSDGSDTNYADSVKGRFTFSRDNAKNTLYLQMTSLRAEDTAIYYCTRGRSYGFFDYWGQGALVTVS
Chain of CBTAU-7.1 (antibody) (VL): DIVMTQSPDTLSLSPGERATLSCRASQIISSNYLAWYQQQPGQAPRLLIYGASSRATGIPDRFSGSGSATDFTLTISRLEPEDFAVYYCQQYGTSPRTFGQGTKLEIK
Chain of tau 194-212 (human) (peptide, as listed by the source): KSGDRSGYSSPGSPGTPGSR

AT8 monoclonal antibody (Thermo, MN1020)
OD450 [1]: > 1.5 od
EC50 (read off the curve) [2]: 0.1 µg/mL
OD450 (tau 194-212 (human)): < 0.3 od

CBTAU-7.1 (antibody)
OD450 [1]: 1 to 1.5 od
OD450 [3]: > 1.5 od
OD450 [4]: > 1.5 od
OD450 [5]: 1 to 1.5 od
OD450 [6]: > 1.5 od
OD450 [7]: > 1.5 od
OD450 [8]: > 1.5 od
OD450 [9]: > 1.5 od
OD450 [10]: > 1.5 od
OD450 [11]: 0.5 to 1 od
OD450 [12]: > 1.5 od
OD450 [13]: 1 to 1.5 od
OD450 [14]: > 1.5 od
OD450 [15]: > 1.5 od
OD450 [16]: 1 to 1.5 od
OD450 [17]: > 1.5 od
OD450 [18]: > 1.5 od
OD450 [19]: > 1.5 od
OD450 [20]: 1 to 1.5 od
OD450 [21]: > 1.5 od
OD450 [22]: > 1.5 od
OD450 [23]: 0.5 to 1 od
OD450 [24]: 0.5 to 1 od
OD450 [25]: 1 to 1.5 od
OD450 [26]: > 1.5 od
OD450 [27]: > 1.5 od
OD450 [28]: > 1.5 od
OD450 [29]: 1 to 1.5 od
OD450 [30]: 1 to 1.5 od
OD450 (ptau 188-209 (human)): > 1.5 od
OD450 (ptau 188-212 (human)): 0.5 to 1 od
OD450 (ptau 192-212 (human)): 1 to 1.5 od
OD450 (ptau 189-212 (human)): 1 to 1.5 od
OD450 [31]: 0.5 to 1 od
OD450 (ptau 188-206 (human)): < 0.3 od
OD450 (ptau 192-209 (human)): < 0.3 od
OD450 (ptau 189-206 (human)): < 0.3 od
OD450 (ptau 188-205 (human)): < 0.3 od
OD450 (ptau 192-215 (human)): < 0.3 od
OD450 (ptau 189-209 (human)): < 0.3 od
OD450 (ptau 192-217 (human)): < 0.3 od
OD450 (tau 194-212 (human)): < 0.3 od
OD450 (tau 190-209 (human)): < 0.3 od
OD450 (tau 186-253 (human)): < 0.3 od
